Experimental data published in US20040228866A1, “Suppressor genes” (Ludwig Institute for Cancer Research, priority 2000, published 2004).

Target: p73α (UniProt O15350)
Experiment: cell-based or functional assay

p73α, sequence (O15350 whole entry): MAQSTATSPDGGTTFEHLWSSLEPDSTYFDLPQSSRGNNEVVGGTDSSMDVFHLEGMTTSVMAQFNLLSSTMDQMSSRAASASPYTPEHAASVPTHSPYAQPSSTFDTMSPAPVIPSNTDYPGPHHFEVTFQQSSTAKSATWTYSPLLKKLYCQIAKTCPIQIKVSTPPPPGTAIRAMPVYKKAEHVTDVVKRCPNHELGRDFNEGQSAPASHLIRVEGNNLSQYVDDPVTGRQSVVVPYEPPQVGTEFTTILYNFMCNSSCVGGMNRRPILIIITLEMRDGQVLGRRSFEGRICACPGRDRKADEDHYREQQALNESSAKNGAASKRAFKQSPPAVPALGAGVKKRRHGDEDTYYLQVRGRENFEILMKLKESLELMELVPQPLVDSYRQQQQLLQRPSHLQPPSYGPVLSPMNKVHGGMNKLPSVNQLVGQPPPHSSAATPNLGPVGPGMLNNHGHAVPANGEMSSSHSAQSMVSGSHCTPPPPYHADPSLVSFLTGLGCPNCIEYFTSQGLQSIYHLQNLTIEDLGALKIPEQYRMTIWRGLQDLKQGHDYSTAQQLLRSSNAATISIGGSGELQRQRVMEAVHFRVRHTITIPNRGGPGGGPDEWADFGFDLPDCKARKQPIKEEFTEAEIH

B1: Apoptosis Stimulating Protein 1 (ASPP1) (protein)
chain: MMPMILTVFLSNNEQILTEVPITPETTCRDVVEFCKEPGEGSCHLAEVWRGNERPIPFDHMMYEHLQIWGPRREEVKFFLRHEDSPTENSEQGGRQTQEQRTQRNVINVPGDKRTEYGVGNPRVELTLSELQDMAARQQQQIENQQQMLVAKEQRLHFLKQQERRQQQSISENEKLQKLKERVEAQENKLKKIRAMRGQVDYSKIMNGNLSAEIERFSAMFQEKKQEVQTAILRVDQLSQQLEDLKKGKLNGFQSYNGKLTGPAAVELKRLYQELQIRNQLNQEQNSKLQQQKELLNKRNMEVAMMDKRISELRERLYGKKIQLNRVNGTSSPQSPLSTSGRVAAVGPYIQVPSAGSFPVLGDPIKPQSLSIASNAAHGRSKSANDGNWPTLKQNSSSSVKPVQVAGADWKDPSVEGSVKQGTVSSQPVPFSALGPTEKPGIEIGKVPPPIPGVGKQLPPSYGTYPSPTPLGPGSTSSLERRKEGSLPRPSAGLPSRQRPTLLPATGSTPQPGSSQQIQQRISVPPSPTYPPAGPPAFPAGDSKPELPLTVAIRPFLADKGSRPQSPRKGPQTVNSSSIYSMYLQQATPPKNYQPAAHSALNKSVKAVYGKPVLPSGSTSPSPLPFLHGSLSTGTPQPQPPSESTEKEPEQDGPAAPADGSTVESLPRPLSPTKLTPIVHSPLRYQSDADLEALRRKLANAPRPLKKRSSITEPEGPGGPNIQKLLYQRFNTLAGGMEGTPFYQPSPSQDFMGTLADVDNGNTNANGNLEELPPAQPTAPLPAEPAPSSDANDNELPSPEPEELICPQTTHQTAEPAEDNNNNVATVPTTEQIPSPVAEAPSPGEEQVPPAPLPPASHPPATSTNKRTNLKKPNSERTGHGLRVRFNPLALLLDASLEGEFDLVQRIIYEVEDPSKPNDEGITPLHNAVCAGHHHIVKFLLDFGVNVNAADSDGWTPLHCAASCNSVHLCKQLVESGAAIFASTISDIETAADKCEEMEEGYIQCSQFLYGVQEKLGVMNKGVAYALWDYEAQNSDELSFHEGDALTILRRKDESETEWWWARLGDREGYVPKNLLGLYPRIKPRQRTLA
transactivation function on the Bax promoter (Bax-luc reporter): 3 fold

B2: ASPP2 (1-1128) (protein)
chain: MMPMFLTVYLSNNEQHFTEVPVTPETICRDVVDLCKEPGESDCHLAEVWCGSERPVADNERMFDVLQRFGSQRNEVRFFLRHERPPGRDIVSGPRSQDPSLKRNGVKVPGEYRRKENGVNSPRMDLTLAELQEMASRQQQQIEAQQQLLATKEQRLKFLKQQDQRQQQQVAEQEKLKRLKEIAENQEAKLKKVRALKGHVEQKRLSNGKLVEEIEQMNNLFQQKQRELVLAVSKVEELTRQLEMLKNGRIDSHHDNQSAVAELDRLYKELQLRNKLNQEQNAKLQQQRECLNKRNSEVAVMDKRVNELRDRLWKKKAALQQKENLPVSSDGNLPQQAASAPSRVAAVGPYIQSSTMPRMPSRPELLVKPALPDGSLVIQASEGPMKIQTLPNMRSGAASQTKGSKIHPVGPDWSPSNADLFPSQGSASVPQSTGNALDQVDDGEVPLREKEKKVRPFSMFDAVDQSNAPPSFGTLRKNQSSEDILRDAQVANKNVAKVPPPVPTKPKQINLPYFGQTNQPPSDIKPDGSSQQLSTVVPSMGTKPKPAGQQPRVLLSPSIPSVGQDQTLSPGSKQESPPAAAVRPFTPQPSKDTLLPPFRKPQTVAASSIYSMYTQQQAPGKNFQQAVQSALTKTHTRGPHFSSVYGKPVIAAAQNQQQHPENIYSNSQGKPGSPEPETEPVSSVQENHENERIPRPLSPTKLLPFLSNPYRNQSDADLEALRKKLSNAPRPLKKRSSITEPEGPNGPNIQKLLYQRTTIAAMETISVPSYPSKSASVTASSESPVEIQNPYLHVEPEKEVVSLVPESLSPEDVGNASTENSDMPAPSPGLDYEPEGVPDNSPNLQNNPEEPNPEAPHVLDVYLEEYPPYPPPPYPSGEPEGPGEDSVSMRPPEITGQVSLPPGKRTNLRKTGSERIAHGMRVKFNPLALLLDSSLEGEFDLVQRIIYEVDDPSLPNDEGITALHNAVCAGHTEIVKFLVQFGVNVNAADSDGWTPLHCAASCNNVQVCKFLVESGAAVFAMTYSDMQTAADKCEEMEEGYTQCSQFLYGVQEKMGIMNKGVIYALWDYEPQNDDELPMKEGDCMTIIHREDEDEIEWWWARLNDKEGYVPRNLLGLYPRIKPRQRSLA
transactivation function on the Bax promoter (Bax-luc reporter): 6 fold
